# How the values were obtained:
# Format in all cases: physicochemical
# [1] = Molecular property of sterilized collagen by acrylamide gel electrophoresis
# Method: Molecular Property of Sterilized Collagen: equivalent amounts of dehydrated collagen were subjected to the following respective treatments: (1) non-treatment; (2) treatment with ozone gas, as described in Example 1; (3) treatment with ultraviolet irradiation for 12 hours; (4) immersion in 75 vol. % ethanol for 4 hours; (5) immersion in 2 vol. % formaldehyde for 1 hour; or (6) autoclave sterilization under high-temperature and high-pressure. Afterwards, each of the samples from the aforementioned treatments was dissolved in acetate solution, analyzed by 5% acrylamide gel electrophoresis, and stained with Coomassie blue.
# [2] = Acrylamide gel electrophoresis of sterilized pepsin and bromelain; settings: 5% acrylamide gel, Coomassie blue
# Method: Samples of two dehydrated enzymes, i.e., pepsin and bromelain, were untreated, sterilized by autoclave, or sterilized with ozone. Subsequently, the samples were dissolved acetate solutions, analyzed by 5% acrylamide gel electrophoresis, and stained with Coomassie blue.
# [3] = Capillary electrochromatography of sterilized hyaluronan; settings: absorbance at 194 nm, corresponds to amount of hyaluronan
# Method: Two equivalent amounts of hyaluronan (average molecular weight: 58 kDa), were respectively subjected to ozone sterilization and autoclave sterilization. Subsequently, the sterilized samples were analyzed by capillary electrochromatography using a fused silica capillary and a 50 mM phosphate buffer (pH 2.99). Separations were carried out at 25 kV and a column temperature of 25° C. Absorbance was detected at 194 nm. Shown in Table 3 below are the areas under the peak for each of the two samples, which correspond to the amount of hyaluronan contained therein. An untreated sample was included as the control.
# [4] = Fluorescence intensity of riboflavin solutions under ultraviolet irradiation; settings: aqueous solution; compared with untreated riboflavin solutions; higher intensity = degradation
# Method: Dehydrated riboflavin was untreated, sterilized by autoclave, or sterilized with ozone. Samples were then dissolved in water to prepare six riboflavin solutions, i.e., solution 1 (100 mg/mL, autoclaved), solution 2 (100 mg/mL, ozone-sterilized), solution 3 (100 mg/mL, untreated), solution 4 (50 mg/mL, autoclaved), solution 5 (50 mg/mL, ozone-sterilized), and solution 6 (50 mg/mL, untreated). Fluorescence intensities of the six solutions were observed under ultraviolet irradiation.
compound,measurement,setting,value
collagen,"bands of α1, α2 and β chains in electrophoresis gel","[1]; autoclave sterilization, high-temperature and high-pressure, lane (6)",mostly degraded
same,"bands of α1, α2 and β chains in electrophoresis gel","[1]; immersion in 2 vol. % formaldehyde for 1 hour, lane (5)",showed no bands
same,"bands of α1, α2 and β chains in electrophoresis gel","[1]; immersion in 75 vol. % ethanol for 4 hours, lane (4)",only showed indistinct bands
same,"bands of α1, α2 and β chains in electrophoresis gel","[1]; treated by ozone gas, lane (2), 5% acrylamide gel, Coomassie blue",substantially the same as the control
same,"bands of α1, α2 and β chains in electrophoresis gel","[1]; ultraviolet irradiation for 12 hours, lane (3)",partially polymerized and cleaved
bromelain,band in electrophoresis gel,[2]; autoclaved,only showed an indistinct band
same,band in electrophoresis gel,[2]; ozone-treated,the same band as the control
hyaluronan,Area under the Peak,[3]; Autoclaved,633930
same,Area under the Peak,[3]; Ozone-treated,814725
pepsin,band in electrophoresis gel,[2]; autoclaved,a band with substantially reduced stain density
same,band in electrophoresis gel,[2]; ozone-treated,a single band that was the same as that shown by untreated pepsin
"Cc1cc2nc3c(=O)[nH]c(=O)nc-3n(C[C@H](O)[C@H](O)[C@H](O)CO)c2cc1C [solution 1, riboflavin]",fluorescence intensity under ultraviolet irradiation,[4],higher than those of the untreated control solutions
"Cc1cc2nc3c(=O)[nH]c(=O)nc-3n(C[C@H](O)[C@H](O)[C@H](O)CO)c2cc1C [solution 4, riboflavin]",fluorescence intensity under ultraviolet irradiation,[4],higher than those of the untreated control solutions
